According to publication PMC11374702, “Structural basis of the Meinwald rearrangement catalysed by styrene oxide isomerase” (Nature Chemistry, 2024):

Target: styrene oxide isomerase (SOI), Pseudomonas sp. VLB120, wild type (Pseudomonas sp. VLB120, UniProt O50216)
Assay: cell-based or functional assay

B1: nanobody (NB) raised against SOI, used for structure determination (VHH)
VHH: QGQLVESGGGLVQAGGSLRLSCTGSGRAFVTPAVGWFRQAPGKEREFVGTINWSGSHTSYADPVKGRFTISRDNAKETVYLQMNNLKPEDADVYYCASRGVSGRYEYWGKGTPVTVSS
For B1, the “catalytic efficiency (kcat/KM) for (S)-styrene oxide of the SOI–NB complex compared to the wild-type enzyme, coupled enzyme assay with EcALDH” value was 3 fold.
